Experimental data: US20200216495A1 (ADRX, published 2020)
“And” between values parts separate entries of the source, which are not always exact repeats. Identical values can stand only once. Square brackets hold non-standard residues; d marks the D form. Ends that are not written are not given here.

Biological target: Ac-VQIINK-NH2 (SEQ ID NO: 23) (N-terminal acetyl (Ac); C-terminal amide (NH2))
Test: cell-based or functional assay

| Binder | VQIINK Inhibition IC50 |
| --- | --- |
| [dR][dR][dL][dK][dV][dR][dW][dW] [rrlkvrww] | 4.44 µm |
| [dL][dK][dI][dR][dI][dE][dY][dH] [lkirieyh] | 7.95 µm |
| [dK][dL][dK][dW][dL][dW] [klkwlw] | 6.93 µm |
| [dL][dK][dI][dA][dI][dH][dY] [lkiaihy] | 4.77 µm |
| [dL][dK][dI][dR][dI][dH][dA] [lkiriha] | 5.3 µm |
| [dK][dI][dR][dI][dH][dY][dH][dL] [kirihyhl] | 7.25 µm |
| [dL][dK][dV][dR][dW][dW] [lkvrww] | 6.63 µm |
| [dR][dK][dI][dR][dI][dH][dY][dH] [rkirihyh] | 5.59 µm |
| [dF][dR][dL][dW][dI][dH][dW] [frlwihw] | 4.01 µm |
| [dL][dK][dV][dR][dW][dW][dW][dR] [lkvrwwwr] | 3.34 µm |
| [dE][dL][dK][dI][dV][dW] [elkivw] | 6.85 µm |
| [dL][dK][dI][dR][dI][dH][dY][dE] [lkirihye] | 3.39 µm |
| [dL][dK][dI][dR][dI][dH][dY][dA] [lkirihya] | 3.83 µm |
| [dI][dL][dK][dI][dV][dW] [ilkivw] | 4.13 µm |
| [dL][dK][dI][dR][dI][dH][dR][dH] [lkirihrh] | 7.35 µm |
| [dM][dR][dL][dK][dV][dR][dW] [mrlkvrw] | 5.67 µm |
| [dK][dV][dR][dW][dW][dL][dR][dW] [kvrwwlrw] | 4.35 µm |
| [dK][dL][dK][dI][dV][dW] [klkivw] | 6.95 µm |
| [dA][dR][dL][dR][dI][dH][dW] [arlrihw] | 6.61 µm |
| [dF][dW][dL][dR][dI][dH][dW][dF] [fwlrihwf] | 4.42 µm |
| [dR][dT][dL][dK][dI][dV][dW][dR] [rtlkivwr] | 5.65 µm |
| [dL][dK][dI][dR][dI][dH][dA][dH] [lkirihah] | 5.54 µm |
| [dR][dL][dK][dV][dR][dW][dW] [rlkvrww] | 5.35 µm |
| [dL][dK][dI][dR][dI][dA][dY][dH] [lkiriayh] | 5.21 µm |
| [dL][dK][dI][dR][dI][dH][dY][dR] [lkirihyr] | 3.02 µm |
| [dF][dK][dI][dE][dI][dE][dY][dH] [fkieieyh] | 4.03 µm |
| [dL][dR][dI][dR][dI][dH][dY][dH] [lririhyh] | 3.34 µm |

Second part, the binder after the results:

| VQIINK Inhibition IC50 | Binder |
| --- | --- |
| 6.58 µm | [dW][dR][dL][dM][dI][dH][dW] [wrlmihw] |
| 3.87 µm | [dW][dD][dL][dK][dV][dR][dW] [wdlkvrw] |
| 2.89 µm | [dW][dR][dL][dR][dI][dT][dW] [wrlritw] |
| 6.49 µm | [dW][dR][dL][dA][dI][dH][dW] [wrlaihw] |
| 7.39 µm | [dW][dR][dL][dR][dI][dH][dM] [wrlrihm] |
| 5.37 µm | [dT][dI][dK][dL][dV][dW] [tiklvw] |
| 8.61 µm | [dW][dR][dL][dK][dT][dR][dW] [wrlktrw] |
| 3.32 µm | [dW][dA][dL][dK][dV][dR][dW] [walkvrw] |
| 6.43 µm | [dW][dR][dR][dK][dV][dR][dW][dW] [wrrkvrww] |
| 3.93 µm | [dW][dL][dK][dI][dV][dW] [wlkivw] |
| 7.04 µm | [dW][dR][dL][dK][dV][dR][dR][dW] [wrlkvrrw] |
| 6.33 µm | [dW][dR][dL][dR][dI][dF][dW] [wrlrifw] |
| 3.21 µm | [dW][dR][dL][dK][dV][dD][dW] [wrlkvdw] |
| 5.33 µm | [dW][dK][dL][dK][dL][dR][dW] [wklklrw] |
| 3.5 µm | [dW][dN][dL][dK][dV][dN][dW] [wnlkvnw] |
| 5.02 µm and 7.98 µm | [dT][dL][dK][dI][dV][dW] [tlkivw] |
| 5.77 µm | [dW][dR][dL][dK][dV][dR][dE][dW] [wrlkvrew] |

| VQIINK Inhibition IC50 | Binder |
| --- | --- |
| 4.51 µm | [dV][dK][dV][dW]G[dR][dL][dW] (not fully specified (residue 5); printed as vkvwgrlw) [vkvwgrlw] |
| 4.77 µm | [dT][dK][dI][dR][dI][dH][dY] [tkirihy] |
| 3.16 µm | [dW][dR][dL][dT][dI][dH][dW] [wrltihw] |
| 8.18 µm | [dW][dF][dL][dR][dI][dH][dW] [wflrihw] |
| 5.12 µm | [dY][dR][dL][dK][dV][dR][dW] [yrlkvrw] |
| 3.46 µm | [dW][dE][dL][dR][dI][dH][dW] [welrihw] |
| 4.07 µm | [dW][dR][dL][dW][dI][dH][dW][dW] [wrlwihww] |
| 3.57 µm | [dW][dR][dL][dK][dV][dA][dW] [wrlkvaw] |
| 3.12 µm | [dW][dA][dL][dR][dI][dH][dW] [walrihw] |
| 4.06 µm | [dV][dR][dW][dW][dK][dL][dR][dW] [vrwwklrw] |
| 3.79 µm | [dW][dW][dL][dK][dL][dR][dW][dW] [wwlklrww] |
| 3.34 µm | [dW][dM][dL][dR][dI][dH][dW] [wmlrihw] |
| 7.34 µm | [dW][dR][dE][dK][dV][dR][dW][dW] [wrekvrww] |
| 3.89 µm | [dW][dR][dL][dA][dV][dR][dW] [wrlavrw] |
| 4.36 µm | [dW][dR][dL][dK][dV][dE][dW] [wrlkvew] |
| 4.41 µm | [dW][dR][dT][dK][dV][dR][dW] [wrtkvrw] |
| 7.32 µm | [dW][dR][dL][dR][dI][dH][dT] [wrlriht] |
